Assay results as given in PMC9007595 (Molecular microbiology, 2020).

Tests used:
Test in all cases: cross-linking
[1] = target: Mycobacterium tuberculosis HtpG-His6 with para-benzoyl-phenylalanine at F10 (Mycobacterium tuberculosis) (UniProt P9WMJ7)
[2] = target: Mycobacterium tuberculosis HtpG-His6 with para-benzoyl-phenylalanine at F635 (Mycobacterium tuberculosis) (UniProt P9WMJ7)
[3] = target: Mycobacterium tuberculosis HtpG-His6 with para-benzoyl-phenylalanine at W197 (Mycobacterium tuberculosis) (UniProt P9WMJ7)

## Mycobacterium tuberculosis HtpG-His6 with para-benzoyl-phenylalanine at F10 (from UniProt P9WMJ7 1-647) (natural protein)
[1]
  stoichiometry N: 2

## Mycobacterium tuberculosis HtpG-His6 with para-benzoyl-phenylalanine at F635 (from UniProt P9WMJ7 1-647) (natural protein)
[2]
  stoichiometry N: 2

## Mycobacterium tuberculosis HtpG-His6 with para-benzoyl-phenylalanine at W197 (from UniProt P9WMJ7 1-647) (natural protein)
[3]
  stoichiometry N: 2
